This data set addresses PvLDH (lactate dehydrogenase) (Plasmodium vivax, UniProt Q4PRK9 1-316). The data set can be described thus: flow cytometry (Ni-NTA beads). The settings on record: protein: recombinant; tags: His6; chain copies: 4.

B1: N15 unmodified (ssDNA)
DNA: CACTCACGTCAGTGACATGCAGGTCCTCTCGCCCCCAGTGACTTGCGTGGTCAGAAATTTCGCACCAC
Usually Kd stands for the equilibrium constant for the complex coming apart. Take B1: the Kd was around 208 nM.

For the origin of these results see PMC12436594, “Probing three-dimensional cyclooctatetraene for nucleobase modification in aptamer selection”.
